Experimental data from the nanobody polyreactivity screen of Harvey et al. (2022).

Test: yeast display, Sf9 membrane polyspecificity reagent, FACS + sequencing; frameworks hold sequencing errors
Procedure, shortened: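 Galactose induction of a Saccharomyces cerevisiae BJ5465 synthetic nanobody display library ran 36–48 hours. The cells were then stained for 1 hour at 4 °C with 10% biotinylated, detergent-solubilized Sf9 membrane reagent, pulled down on streptavidin microbeads and FACS-sorted into low and high (top ~1%) gates on expression and reagent-binding fluorescence. Labels for polyreactivity follow the gate of origin.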

| Sequence | polyreactivity (PSR sort gate) |
| --- | --- |
| QVQLVESGGGLVQAGGSLRLSCAASGSTFPSYAMGWYRQAPGKERELVAVITSGGRTYYADSVKGRFTISRDNAKNTVYLQMNSLKPEDTAVYYCAARGHRGYQGYDYWGQGTPVTVSS | high polyreactivity |
| QVQLVESGGGLVQAGGSLRLSCAASGSTFPSYTMGWYRQAPGKERELVAAITLSGGSTYYADSVNGRFTISRDNAKYTVYLQMNSLKPSDTAVYYCAAYSQRGYYWGQGTQVTVSS | low polyreactivity |
| QVQLVESGGGLVQAGGSLRLSCAASGSTFPTYAMGWYRQAPGKERELVAAITRGGRTYYADSVKGRFTISRDNAKNTVYLQMNSLKPEDTAVYYCAAVYYGAAQYNYWGQGTQVTVSS | high polyreactivity |
| QVQLVESGGGLVQAGGSLRLSCAASGSTFPVYAMGWYRQAPGKERELVAAISRSGASTYYADSVKGRFTISRDNAKNTVYLQMNSLKPEDTAVYYCARGYQGRLKYEYWGQGTQVTVSS | low polyreactivity |
| QVQLVESGGGLVQAGGSLRLSCAASGSTFPVYAMGWYRQAPGKERELVASLSSGAETNYADSVKGRFTISRDNAKNTVYLQLISLTPEDTAVYYCAATVPLRTIRPRSYGYWGQGTQVTVSS | low polyreactivity |
| QVQLVESGGGLVQAGGSLRLSCAASGSTFPWNAMGWYRPAPGKERELVAAISSGGSTNYADSVKGRFTISRDNAKNTVYLQMNSLKPEDTAVYYCNAYYWSDSRGKYDYWGQGTQVTVSS | low polyreactivity |
| QVQLVESGGGLVQAGGSLRLSCAASGSTFPWNAMGWYRQAPGKERELVAAINYGNGSTYYADSVKGRFTISRDNAKNTVYLQMNSLKPEDTAVYYCNADYTGTRTDSVTPEYEYCGQGTQVTVSS | low polyreactivity |
| QVQLVESGGGLVQAGGSLRLSCAASGSTFPWNAMGWYSQAPGKEREMVAAINYGNGSTYYADSVKGRFTISRDNAKNTVYLQMNSLKPEDTAVYYCNADYTGTRTDSVSPEYEYWGQGTQVTVSS | low polyreactivity |
| QVQLVESGGGLVQAGGSLRLSCAASGSTFPYNAMGSYRQAPGKERELVAAISSSGGRTYYADSVKGRFTISRDTAKNTVYLQMNSLKPEDTAVYYCNAAYYYTYGYWGQGTQVTVSS | high polyreactivity |
| QVQLVESGGGLVQAGGSLRLSCAASGSTFPYNAMGWYRPAPGKERELVAAISSGGITYYADSVKGRFTISRDNAKNTVYLQMNSLIPEDTAVYYCAATVLGDYEYWGQGTQVTVSS | low polyreactivity |
| QVQLVESGGGLVQAGGSLRLSCAASGSTFPYNAMGWYRQAPGKERELLAAISWRGGRTYYADSVKGRFTISRDNAKNTVYLQMNSLKPEYTGVFYCAVVLSTYSYADYDYWGQGTHVTVSS | high polyreactivity |
| QVQLVESGGGLVQAGGSLRLSCAASGSTFPYPYTMGWYRQAPGKERELVAVNSRTGGSTFYADSVKGRFTISRDNAKNTVYFQMNSLKPEDTAVYYCAARRDGWTFWKYDYWGQGTQVTVSS | high polyreactivity |
| QVQLVESGGGLVQAGGSLRLSCAASGSTFPYYAMGWYRQAPGKEREFVAAISSSGGSTYYADSVKWRFTISRDNAKNTVYLQMNSLKPEDTAVYYCAAQGARRNYYRYGTYTNRRYDYWGQGTQVTVSS | high polyreactivity |
| QVQLVESGGGLVQAGGSLRLSCAASGSTFPYYAMGWYRQAPGKERELVAVITSSGSRTYYADSVKGRFTISRDNAKNTVYLPMNSLKPEDTAVYYCARDTRYYLPYRSQYDYWGQGTQVTVSS | high polyreactivity |
| QVQLVESGGGLVQAGGSLRLSCAASGSTFQDNAMGWYRQAPGKERELVAVITRTGGDTNYADSVKGRFTISRDNAKNTVYLQMNSLKPEDTAVYYCAADNVYVTWFYYWGQGTQVTVSS | low polyreactivity |
| QVQLVESGGGLVQAGGSLRLSCAASGSTFQFYALGWYRQAPGKERELVAAISVSGDRTYYADSVKGRFTISRDYAKNTVYLQMNSLKPEDTAVYYCAASIWHFEVVSWYLYDYWGQGTQVTVSS | high polyreactivity |
| QVQLVESGGGLVQAGGSLRLSCAASGSTFQFYAMGWYRQAPGKERELVAAISVSGDRTYYADSVKGRFTISRDNAKNTVYLQMNSLKPEDTAVYYCAARYGPFKRRFDYWGQGTQVTVSS | high polyreactivity |
| QVQLVESGGGLVQAGGSLRLSCAASGSTFQGYAMGRYRQAPGKERELVAGITGSGGSSYYADSVKGRFTISRDNAKNTVYLQMNSLKPEDTAVYYCAARYYQSYYYKYYYWGQGTQVTVSS | high polyreactivity |
| QVQLVESGGGLVQAGGSLRLSCAASGSTFQGYTMGWYRQAPGKERELVAAISVRRGITYYADSVKGRFTISRDNAKNTVYLQMNSLKPEDTAVYYCNAYYYRPYGNKYGYWGQGTQVTVSS | high polyreactivity |
| QVQLVESGGGLVQAGGSLRLSCAASGSTFQLYAMGWYRQAPGKERELVAGISRDGSTYYADSVKGRFTISRDNAKNTVYLQMNSLKPEDTAVYYCAAKYYGNKRDLYYWGQGTQVTVSS | low polyreactivity |
| QVQLVESGGGLVQAGGSLRLSCAASGSTFQLYDMGWYRQEPGKERELVAGISRDGSTYYADSVKGRFTISRDNAKNTVYLLMNSLKPEDTAVYYCAAKFYGNKRDLYYWGQGTQVTVSS | low polyreactivity |
| QVQLVESGGGLVQAGGSLRLSCAASGSTFQLYSMGWYRQAPGKERELVAAIRWRGGSTYYADSVKGRFTISRDNAKNTVYLQMNSLKPEDTAFYYCAAVGYNYNVEYYYWGQGTQVTVSS | high polyreactivity |

| Sequence | polyreactivity (PSR sort gate) |
| --- | --- |
| QVQLVESGGGLVQAGGSLRLSCAASGSTFQNNAMGWYRQAPGKERELVATISRRGGSTYYADSVKGRFTISRDIAKNTVYLQMNSLKPEDTAVYYCTGRDYWGQGTQVTVSS | high polyreactivity |
| QVQLVESGGGLVQAGGSLRLSCAASGSTFQPYAMGWSRQAPGKERECVATISGSAGSTYYADSVKGRFKISRDNAKNTVYLQMNSLKPEDTAVYYCKAESPEGYRLLDYWGQGTQVTVSS | low polyreactivity |
| QVQLVESGGGLVQAGGSLRLSCAASGSTFQPYAMGWYRPAPGKERELVAAIRYSGGITYYADSVKGRFTISRDNAKNSVYLQMNSLKPEDTAVYYCAAYGFYGGDYWGQGTQVTVSS | high polyreactivity |
| QVQLVESGGGLVQAGGSLRLSCAASGSTFQRYAMGWYRQAPGKERELVAAINKSGGTTYYADSVKGRFTISRDNAKNTVYLLMNSLKPEDTAVYYCATDNPVVYQPGNMDYWGQGTQVTVSS | low polyreactivity |
| QVQLVESGGGLVQAGGSLRLSCAASGSTFQRYAMGWYRQAPGKERELVAVITNGGSTKYADSVKGRFTISRDNAKNTVYLQMNSLKPEDTAVYYCAAGLRSWSTGLWYGYWGQGTQVTVSS | high polyreactivity |
| QVQLVESGGGLVQAGGSLRLSCAASGSTFQRYTMGWYRQPPGKERELVAAISQSGGRTYYADSVKGRFTISRDNAKNTVYLQMNSLKPEDTAVYYCNAASRTKFDYWGQGTQVTVTS | high polyreactivity |
| QVQLVESGGGLVQAGGSLRLSCAASGSTFQSNAMGWYRQAPGKERELVATISWSGGITYADSVKGRFTISRDNAKNTVYLQMNSLKPEDNAVHYFTDPDFDYWGQGTQVTLSS | low polyreactivity |
| QVQLVESGGGLVQAGGSLRLSCAASGSTFQSNAMGWYRQAPGKERELVATITQSGATTYYADSVKGRFTISRDNAKNTVYLQMNSLKPEDTAVYYCNVDTYQKRWFWLDLDGGYWGQGTQVTVSS | low polyreactivity |
| QVQLVESGGGLVQAGGSLRLSCAASGSTFQSYTMGWYRQAPGKERELVAGISRSGGSTYYADSVKGRFTISRDNAKNTVYLQMNSLKPEDTAVYYCAAAFYGRWGGFDYWGQGTQVTVSS | high polyreactivity |
| QVQLVESGGGLVQAGGSLRLSCAASGSTFQTYAMGGYRQAPGKEREFVAAITSGGSTNYADSVKGRFTISRDNAKNTVYLQMNSLKPEDTAVYYCAVRQIYQTSDHRLQYDYWGQGTQVTVSS | low polyreactivity |
| QVQLVESGGGLVQAGGSLRLSCAASGSTFQTYAMGWYRQAPGKERELVAAITYGGSTNYADSVKGRFTMSRANAKNTVYLLMNSLKPEDTAVYYCAARDGDQRPRLRYDYWAQGTQVTVSS | low polyreactivity |
| QVQLVESGGGLVQAGGSLRLSCAASGSTFQVYAMGWYRPAPRKERELVATIRRTGGSTYYADSVKGRFTISRDNAKNTVYLQMNSLKPEDTAVYYCAARTYGGIVLRLDYWGQGTQVTVSS | high polyreactivity |
| QVQLVESGGGLVQAGGSLRLSCAASGSTFQVYAMGWYRQAPGKERELVAAISNGGRTNYADSVKGRFTISRDNAKNTVYLLMNSLKPEDTAVYYCNADQVWWSFDRVLVGYEYWGQGTQVTVSS | low polyreactivity |
| QVQLVESGGGLVQAGGSLRLSCAASGSTFQVYGMGWYRQAPGKERELGAAISRSGGRTYYADSVKGRFTISRDNAKNTVYLQMNSLKPEDTAVYYCNAPISYYDEYYYWGQGTQVTVSS | high polyreactivity |
| QVQLVESGGGLVQAGGSLRLSCAASGSTFQWNAMGWYRQAPGKERELVAAISKSGGRTYYADSVKGRFTISRDNAKNTVYLQMNSLKPEDTAVYYCNALGSLDGRYGYWGQGTQVTVSS | high polyreactivity |
| QVQLVESGGGLVQAGGSLRLSCAASGSTFQYNAMGWYRQAPGKERELVAAISLSGGSTYYADSVKGRFTISRDNAKNTVYLQMNSLKPEDTAVYYCATEYYVYDYYYWAWYGYEYWGQGTQVTVSS | high polyreactivity |
| QVQLVESGGGLVQAGGSLRLSCAASGSTFQYYAMGWYRQAPGKEGELVATINSGGSTNYADSVKGRFTISRDNAKNTVYLQMNSLKPEDTAVYYCARRVRYKHYDYWGQGTQVTVSS | high polyreactivity |
| QVQLVESGGGLVQAGGSLRLSCAASGSTFQYYAMGWYRQAPGKERELVAAITHSGTRTYYADSVKGRFTISRDNAKNTVYLQMNSLKPEDTAVYYCAARGYGKYDYWGQGTQVTVSS | high polyreactivity |
| QVQLVESGGGLVQAGGSLRLSCAASGSTFQYYAMGWYRQAPGKERELVARISDSSANTYYADSVKGRFTISRDNAKNTVYLQMNSLKPEDTAVYYCAASVPYKFYSVVSVRYEYWGQGTQVTVSS | low polyreactivity |
| QVQLVESGGGLVQAGGSLRLSCAASGSTFQYYAMGWYRQAPGKERELVASISLSGTSTYYADSVKGRFTISRDNAKNTVYLQMNSLKPEDTAVYYCAADIVPWWASFLYDGEDYWGQGTQVTVSS | low polyreactivity |
| QVQLVESGGGLVQAGGSLRLSCAASGSTFQYYAMGWYRQAPGKERELVDAISPSVDTTFYADSVKGRFTISRDNAKNTVYLQMNSLKPEDTAVYFCAKRYVDPLGSGTLGSWGQGTQVTVSS | low polyreactivity |
